{
  "source": "patent US8802160B2",
  "about": "(Amorphical Ltd., priority 2007, dated 2014)",
  "molecules": {"B1": {"name": "GAP65: approximately 65 kDa negatively charged glycoprotein from Cherax quadricarinatus gastrolith, SEQ ID NO:1; used as GAP65 enriched fraction (protein, listed as Cherax quadricarinatus)", "chain": "MIRRVTTPLLALLLAGWVVAQTTDMDPEQYCARRDDEYFRKDFGDPAEFASDYRANCGVYYRCVPAPAGKRSISASQCQSELFFDVQQQICERKSKVTNCEQIDKEHPPQPFWPLREGEESQCKSGEIMCGSGECLPQHRFCDENSDCADGSDENICTPDKDPNRADVCEPRTCLWSQGCFCSVDGTRIPGDLTVDQTPQMITITFTGAINERNFRIFQDVFKDTVKHKGNDCTPKGTFFISHGFSNYSAIQELNRVGHEIAVSSITNNDNPDYWSKLSALDYEAEMDGARLIIEKFANITANEVLGIRVPKQRVGGNRQFRMMVDWGFLYDSSISAPMGRLPLWPYTLMHRMPHKCLGNDQNCPSQNFTVWEMVINEMDRRDDPQFDERLTGCHFVDQCANIQSPEQFRAFLDNNLARHYRTNRAPLGLHFTSGYFETRRDFLREFVKWVRETALSGDYFFVTMQQVINWMEAPTELTAINNFQEWKGKCEVKGQPYCSLPNPCPKKVPRIFPNEEEMFLYTCMECPNTYPWLGDPHGNGFLDIPDF", "modifications": "glycosylated", "notes": "used as GAP65 enriched fraction"}, "B2": {"name": "trypsin (protein, UniProt P00760 24-246, looked up)", "Serine protease 1": "IVGGYTCGANTVPYQVSLNSGYHFCGGSLINSQWVVSAAHCYKSGIQVRLGEDNINVVEGNEQFISASKSIVHPSYNSNTLNNDIMLIKLKSAASLNSRVASISLPTSCASAGTQCLISGWGNTKSSGTSYPDVLKCLKAPILSDSSCKSAYPGQITSNMFCAGYLEGGKDSCQGDSGGPVVCSGKLQGIVSWGSGCAQKNKPGVYTKVCNYVSWIKQTIASN", "notes": "other (inert) protein used as control in the precipitation assay"}},
  "key": {"[1]": {"test": "In vitro calcium carbonate precipitation assay testing the stabilization of ACC", "type": "physicochemical", "settings": "for effect on calcium carbonate precipitation (polymorph obtained): CaCl2 + Na2CO3 solution, SEM, Raman", "protocol": "Electron microscope images of the precipitates distinctly indicated different polymorph composition of calcium carbonate for the precipitation in the presence/absence of GAP65-enriched fractions (FIG. 7).\nFIG. 7 presents precipitation results of calcium carbonate in the presence of GAP65 and in the presence of other protein (trypsin). SEM images in FIG. 7A indicate the distinct polymorph of calcium carbonate in each treatment.\n(§1) 100 μl of 1M CaCl2 was added to 10 ml double distilled water (final concentration: 10 mM). 80 μl from the protein extraction solution (1.2 μg/μl) were added (final concentration ˜10 μg/ml). 100 μl of 1M Na2CO3 (final concentration: 10 mM) was added following an intensive shaking. The vial was centrifuged for 5 min at 4000 rpm, the precipitate was smeared over a glass slide and instantly dried with air flow. […] The observations were confirmed by Raman spectroscopy.\nThe peak at 560 is attributed to the glass substrate. […] Specific expression of GAP21, GAP22 and GAP65 in several target tissues was checked by means of RT-PCR, similarly as described in Example 2. GAP21 and GAP65 expressions were found in both cuticle related tissues. GAP22 expression was found only in the gastrolith epithelial disc. The cDNA sequences of the corresponding genes were obtained and their deduced proteins were found (FIGS. 13-15). […] GAP12, GAP21 and GAP22, on the other hand, show no significant similarity to any known domain."}, "[2]": {"test": "Stability of ACC at room temperature by Raman spectroscopy", "type": "physicochemical", "protocol": "The precipitated calcium carbonate was checked over long periods for the amorphous/crystalline state.\nas §1"}},
  "note": "Entries after “also recorded” stand apart in the source; their conditions may differ.",
  "data": [
    {"molecule": "B1", "values": [
      {"measurement": "ACC share of the total CaCO3 precipitated", "setting": "[1]; 10 mM CaCl2, 10 mM Na2CO3, ~10 μg/ml protein, estimated", "value": "at least 50%"},
      {"measurement": "effect on calcium carbonate precipitation (polymorph obtained)", "setting": "[1]", "value": "amorphous CaCO3; also recorded: deposition of an amorphous form (ACC)"},
      {"measurement": "time ACC precipitated with GAP65 remained stable", "setting": "[2]", "value": "at least 1 months"}
    ]},
    {"molecule": "B2", "values": [
      {"measurement": "effect on calcium carbonate precipitation (polymorph obtained)", "setting": "[1]", "value": "rapid crystallization"}
    ]}
  ]
}
